Measurements reported in US20120135912A1 (PERSEID THERAPEUTICS, published 2012).
Where a chain is given by its changes, count along the chain named.

B1: 146R0 (Clone 146 with three spacer-FLAG tags, CHO-S supernatant) (ligand)
chain: FKIETTPESRYLAQIGDSVSLTCSTTGCESPLFFWRPLLDSPLNGKVTNEGTTSTLTMNPVSFGNEHSYLCTARCESRSLEKGIQVEIYSFPKDPEIHLSGPLEAGKPITVKCSVADVYPFDRLEIDLLKGDHLMKSQEFLEDADRKSLETKSLEVTFTPVIEDIGKVLVCRAKLHIDEMDSVPTVRQAVKELQVYISPGGGSDYKDDDDKGGGSDYKDDDDKGGGSDYKDDDDK
notes: assayed as concentrated, filtered crude supernatant
B2: 146R7 (ligand)
chain: FKIETTPESRYLAQIGDSVSLTCSTTGCESPLFFWRPLLDSPLNGKVTNEGTTSTLTMNPVSFGNEHSYLCTARCESRKLEKGIQVEIYSFPKDPEIHLSGPLEAGKPITVKCSVADVYPFDRLEIDLLKGDHLMKSQEFLEDADRKSLETKSLEVTFTPVIEDIGKVLVCRAKLHIDEMDSVPTVRQAVKELQVYISPGGGSDYKDDDDKGGGSDYKDDDDKGGGSDYKDDDDKGS
notes: Crude CHO-S supernatant, 3x spacer-FLAG tagged
B3: 146R13 (ligand)
chain: B2 chain with L32F
notes: as for B2
B4: 146R8 (ligand)
chain: B2 chain with R74T
notes: as for B2
B5: 146R3 (ligand)
chain: B2 chain with P37T, K79S
notes: as for B2
B6: 146R18 (ligand)
chain: B2 chain with L32F, L39I, R74T
notes: as for B2
B7: 146R17 (ligand)
chain: B2 chain with L32F, L39I
notes: as for B2
B8: 146R4 (ligand)
chain: B2 chain with L38Q, K79S
notes: as for B2
B9: 146R5 (ligand)
chain: B2 chain with L39I, K79S
notes: as for B2
B10: 146R10 (ligand)
chain: B2 chain with L32F, R74T
notes: as for B2
B11: 146R15 (ligand)
chain: B2 chain with L32F, L38Q
notes: as for B2
B12: 146R14 (ligand)
chain: B2 chain with L39I
notes: as for B2
B13: 146R11 (ligand)
chain: B2 chain with L38Q, R74T
notes: as for B2
B14: 146R1 (ligand)
chain: B2 chain with L32F, K79S
notes: as for B2
B15: 146R9 (ligand)
chain: B2 chain with L32F, L38Q, K79S
notes: as for B2
B16: 146R2 (ligand)
chain: B2 chain with F34S, K79S
notes: as for B2
B17: 146R16 (ligand)
chain: B2 chain with L32F, L39I, K79S
notes: Crude CHO-S supernatant, 3x spacer-FLAG tagged; The cell prints N: 131
B18: 146R6 (ligand)
chain: B2 chain with R74T, K79S
notes: as for B2
B19: 146R12 (ligand)
chain: B2 chain with L32F, F34S, R74T
notes: as for B2

target: T1, human VLA4-Fc (alpha4-Fc/beta1-Fc heterodimer) (human); assay: SPR (BIACORE), crude CHO-S supernatant on VLA4-Fc
T1 construct: Soluble heterodimer from CHO cells, Protein A purified; also called VLA-Fc
T1 sequence (chain, as listed by the source limits assumed, form in doubt, chain 1 of 2): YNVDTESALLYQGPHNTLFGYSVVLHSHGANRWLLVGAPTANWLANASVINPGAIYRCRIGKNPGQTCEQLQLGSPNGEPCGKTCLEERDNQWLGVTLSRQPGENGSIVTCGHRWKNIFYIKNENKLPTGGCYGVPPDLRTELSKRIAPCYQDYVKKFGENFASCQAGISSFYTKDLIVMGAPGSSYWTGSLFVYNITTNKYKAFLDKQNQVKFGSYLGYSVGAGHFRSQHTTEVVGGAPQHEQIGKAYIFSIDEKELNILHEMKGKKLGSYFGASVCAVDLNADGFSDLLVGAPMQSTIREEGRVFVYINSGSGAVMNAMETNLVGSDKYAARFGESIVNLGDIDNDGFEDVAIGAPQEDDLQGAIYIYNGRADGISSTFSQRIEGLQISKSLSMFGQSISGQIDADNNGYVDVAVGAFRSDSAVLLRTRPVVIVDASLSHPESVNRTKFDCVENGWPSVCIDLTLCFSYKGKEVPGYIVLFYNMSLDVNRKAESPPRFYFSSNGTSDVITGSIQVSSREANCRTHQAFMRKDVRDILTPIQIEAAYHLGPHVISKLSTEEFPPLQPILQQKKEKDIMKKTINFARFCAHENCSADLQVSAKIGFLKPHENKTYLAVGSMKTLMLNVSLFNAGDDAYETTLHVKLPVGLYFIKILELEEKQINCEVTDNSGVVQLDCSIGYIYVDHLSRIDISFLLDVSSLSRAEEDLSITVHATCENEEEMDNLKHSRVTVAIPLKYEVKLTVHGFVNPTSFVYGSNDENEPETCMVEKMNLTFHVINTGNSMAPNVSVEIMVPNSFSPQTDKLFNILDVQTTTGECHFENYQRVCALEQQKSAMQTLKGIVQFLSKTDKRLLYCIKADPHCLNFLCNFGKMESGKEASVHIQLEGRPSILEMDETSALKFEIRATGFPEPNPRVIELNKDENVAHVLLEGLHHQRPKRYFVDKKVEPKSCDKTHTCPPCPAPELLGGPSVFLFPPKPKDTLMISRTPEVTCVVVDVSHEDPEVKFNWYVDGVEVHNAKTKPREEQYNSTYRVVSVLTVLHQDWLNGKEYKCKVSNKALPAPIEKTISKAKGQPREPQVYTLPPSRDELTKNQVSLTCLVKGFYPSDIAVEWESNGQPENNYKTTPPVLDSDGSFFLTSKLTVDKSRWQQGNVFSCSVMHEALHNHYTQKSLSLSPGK
T1 sequence (chain, as listed by the source limits assumed, form in doubt, chain 2 of 2): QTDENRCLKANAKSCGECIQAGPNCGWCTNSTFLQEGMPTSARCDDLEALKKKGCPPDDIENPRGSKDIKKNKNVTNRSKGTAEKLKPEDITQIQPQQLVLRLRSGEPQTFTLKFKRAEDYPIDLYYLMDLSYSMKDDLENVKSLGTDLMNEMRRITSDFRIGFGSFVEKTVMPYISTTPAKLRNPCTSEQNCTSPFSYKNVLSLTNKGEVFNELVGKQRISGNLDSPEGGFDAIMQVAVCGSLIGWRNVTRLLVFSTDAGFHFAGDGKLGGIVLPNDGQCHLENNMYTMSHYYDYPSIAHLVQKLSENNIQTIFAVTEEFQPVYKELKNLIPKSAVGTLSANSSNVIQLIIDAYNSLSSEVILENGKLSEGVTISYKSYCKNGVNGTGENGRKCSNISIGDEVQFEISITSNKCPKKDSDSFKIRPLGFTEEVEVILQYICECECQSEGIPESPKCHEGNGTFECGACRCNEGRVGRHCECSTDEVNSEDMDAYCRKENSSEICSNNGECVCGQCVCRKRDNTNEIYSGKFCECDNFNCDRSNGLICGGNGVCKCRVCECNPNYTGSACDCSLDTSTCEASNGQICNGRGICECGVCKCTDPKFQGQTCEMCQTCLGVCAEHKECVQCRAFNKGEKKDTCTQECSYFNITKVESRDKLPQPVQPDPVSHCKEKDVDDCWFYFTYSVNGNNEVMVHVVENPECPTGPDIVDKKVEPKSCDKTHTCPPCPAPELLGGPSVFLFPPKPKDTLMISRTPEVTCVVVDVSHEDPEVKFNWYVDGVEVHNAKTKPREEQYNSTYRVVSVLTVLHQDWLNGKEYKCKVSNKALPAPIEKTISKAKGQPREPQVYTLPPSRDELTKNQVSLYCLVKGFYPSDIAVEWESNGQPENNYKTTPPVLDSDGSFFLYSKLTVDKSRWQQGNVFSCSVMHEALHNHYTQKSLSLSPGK

| fold weaker binding relative to 146R0 (KD(variant)/KD(146R0)) [fold] | Binder |
| --- | --- |
| 1 | B1 |
| 1 | B2 |
| 2.3 | B3 |
| 1.7 | B4 |
| 1.3 | B5 |
| 6.3 | B6 |
| 2.8 | B7 |
| 2.6 | B8 |
| 1.2 | B9 |
| 2.7 | B10 |
| 5.3 | B11 |
| 1.5 | B12 |
| 25.9 | B13 |
| 1.1 | B14 |
| 2 | B15 |
| 2.7 | B16 |
| 1.1 | B17 |
| 1.8 | B18 |
| 21.7 | B19 |
